Experimental data as given in publication PMC9728185.
Several values for one entry are separate records, joined by “and”; a condition that tells them apart may be missing. Equal entries are not always repeated.

Target: Glycerol dehydrogenase from Klebsiella pneumoniae (encoded by gldA, strain MGH78578) (Klebsiella pneumoniae strain MGH78578)
Test: SEC; analytical Superdex-200 10/300 GL, 20 mM Tris-HCl, 0.1 mM TCEP, 200 mM NaCl, pH 8.0, 0.5 ml/min; 200 ul of purified KpGlyDH at 4.94 mg/ml; masses from a standard curve of reference proteins; octamer and hexadecamer in equilibrium

- stoichiometry N: 8 and 16
Substance: Glycerol dehydrogenase from Klebsiella pneumoniae (encoded by gldA, strain MGH78578) (enzyme)
